Columns and labels:
Assay in all cases: holdup assay
Parameters in all cases: key: below the threshold = too weak to quantify, mostly under pKd 3.1 to 4
NHERF3_1, Q5T2W1 = molecular target: T1, NHERF3_1, Q5T2W1
T1 sequence (Q5T2W1 4-100, limits assumed, looked up): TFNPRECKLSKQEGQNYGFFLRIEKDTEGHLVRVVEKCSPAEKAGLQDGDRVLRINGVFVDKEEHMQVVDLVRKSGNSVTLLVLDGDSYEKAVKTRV

Inadl_3, Q8NI35 = molecular target: Inadl_3, Q8NI35
FRMPD1, Q5SYB0 = molecular target: T2, FRMPD1, Q5SYB0
T2 sequence (Q5SYB0 52-145, limits assumed, looked up): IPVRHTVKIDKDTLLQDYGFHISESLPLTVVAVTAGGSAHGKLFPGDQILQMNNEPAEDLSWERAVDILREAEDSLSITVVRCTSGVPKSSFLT

GRIP1_5, Q9Y3R0 = molecular target: T3, GRIP1_5, Q9Y3R0
T3 sequence (Q9Y3R0 568-668, limits assumed, looked up): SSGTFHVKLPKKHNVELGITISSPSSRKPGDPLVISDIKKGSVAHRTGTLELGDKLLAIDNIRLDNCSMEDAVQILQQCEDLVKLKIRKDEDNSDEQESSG

FRMPD4, Q14CM0 = molecular target: FRMPD4, Q14CM0
Sequence of FRMPD4, Q14CM0 (Q14CM0 67-160): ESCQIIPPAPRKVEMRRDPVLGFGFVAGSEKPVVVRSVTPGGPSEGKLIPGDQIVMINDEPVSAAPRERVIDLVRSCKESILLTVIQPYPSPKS

MPDZ_5, O75970 = molecular target: T4, MPDZ_5, O75970
T4 sequence (O75970 695-796, limits assumed, looked up): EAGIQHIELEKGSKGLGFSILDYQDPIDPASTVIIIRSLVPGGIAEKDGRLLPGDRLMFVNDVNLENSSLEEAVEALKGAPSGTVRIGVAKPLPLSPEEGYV

MAGI2_6, Q86UL8 = molecular target: MAGI2_6, Q86UL8
Sequence of MAGI2_6, Q86UL8 (Q86UL8 1141-1229): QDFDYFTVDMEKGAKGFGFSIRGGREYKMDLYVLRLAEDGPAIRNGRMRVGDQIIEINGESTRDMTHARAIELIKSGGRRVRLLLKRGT

IL16_4, Q14005 = molecular target: IL16_4, Q14005
Sequence of IL16_4, Q14005 (Q14005 1229-1329): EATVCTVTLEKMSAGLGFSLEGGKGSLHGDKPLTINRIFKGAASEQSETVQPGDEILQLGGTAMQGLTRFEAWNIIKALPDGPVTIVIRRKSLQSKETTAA

PDLIM1, O00151 = molecular target: PDLIM1, O00151
Sequence of PDLIM1, O00151 (O00151 1-87): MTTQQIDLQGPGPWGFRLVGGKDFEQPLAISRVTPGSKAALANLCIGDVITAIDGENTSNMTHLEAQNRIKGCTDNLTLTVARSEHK

PDZRN3_1, Q9UPQ7 = molecular target: T5, PDZRN3_1, Q9UPQ7
T5 sequence (Q9UPQ7 244-349, limits assumed, looked up): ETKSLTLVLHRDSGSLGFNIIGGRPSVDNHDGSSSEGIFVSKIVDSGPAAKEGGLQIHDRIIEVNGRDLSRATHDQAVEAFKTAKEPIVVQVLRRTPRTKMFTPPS

GRID2IP_1, A4D2P6 = molecular target: GRID2IP_1, A4D2P6
Sequence of GRID2IP_1, A4D2P6 (A4D2P6 1-87): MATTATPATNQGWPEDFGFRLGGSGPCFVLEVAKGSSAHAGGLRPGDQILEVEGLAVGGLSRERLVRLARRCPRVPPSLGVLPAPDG

MPDZ_12, O75970 = molecular target: T6, MPDZ_12, O75970
T6 sequence (O75970 1857-1958, limits assumed, looked up): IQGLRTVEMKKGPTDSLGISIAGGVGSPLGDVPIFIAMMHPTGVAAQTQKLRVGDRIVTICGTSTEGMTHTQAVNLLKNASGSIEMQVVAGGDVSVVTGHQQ

DLG4_1, P78352 = molecular target: DLG4_1, P78352
Sequence of DLG4_1, P78352 (P78352 62-152): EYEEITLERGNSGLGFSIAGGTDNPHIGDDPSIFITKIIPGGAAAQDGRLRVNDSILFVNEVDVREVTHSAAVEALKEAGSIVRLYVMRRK

NOS1, P29475 = molecular target: NOS1, P29475
Sequence of NOS1, P29475 (P29475 9-101): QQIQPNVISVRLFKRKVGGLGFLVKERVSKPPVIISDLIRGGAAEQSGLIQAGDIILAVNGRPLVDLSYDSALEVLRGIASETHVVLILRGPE

GRIP1_7, Q9Y3R0 = molecular target: T7, GRIP1_7, Q9Y3R0
T7 sequence (Q9Y3R0 999-1096, limits assumed, looked up): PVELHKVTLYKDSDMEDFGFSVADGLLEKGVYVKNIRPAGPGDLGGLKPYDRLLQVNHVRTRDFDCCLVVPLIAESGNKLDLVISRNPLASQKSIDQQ

LIN7A, O14910 = molecular target: T8, LIN7A, O14910
T8 sequence (O14910 103-200, limits assumed, looked up): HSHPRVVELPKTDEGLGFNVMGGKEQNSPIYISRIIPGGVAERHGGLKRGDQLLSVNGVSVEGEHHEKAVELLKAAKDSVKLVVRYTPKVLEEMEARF

DLG3_1, Q92796 = molecular target: T9, DLG3_1, Q92796
T9 sequence (Q92796 125-227, limits assumed, looked up): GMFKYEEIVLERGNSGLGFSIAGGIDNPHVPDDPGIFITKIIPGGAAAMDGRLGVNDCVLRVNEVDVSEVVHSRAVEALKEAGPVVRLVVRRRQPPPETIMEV

APBA2_1, Q99767 = molecular target: T10, APBA2_1, Q99767
T10 sequence (Q99767 563-664, limits assumed, looked up): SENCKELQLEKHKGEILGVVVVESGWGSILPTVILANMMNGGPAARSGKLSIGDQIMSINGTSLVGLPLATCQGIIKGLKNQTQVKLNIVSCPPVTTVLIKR

CARD11, Q9BXL7 = molecular target: T11, CARD11, Q9BXL7
T11 sequence (Q9BXL7 662-765, limits assumed, looked up): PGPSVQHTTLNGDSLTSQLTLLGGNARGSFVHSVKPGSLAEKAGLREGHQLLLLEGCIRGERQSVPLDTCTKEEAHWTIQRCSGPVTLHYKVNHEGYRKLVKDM

LDB3, O75112 = molecular target: LDB3, O75112
Sequence of LDB3, O75112 (O75112 1-94): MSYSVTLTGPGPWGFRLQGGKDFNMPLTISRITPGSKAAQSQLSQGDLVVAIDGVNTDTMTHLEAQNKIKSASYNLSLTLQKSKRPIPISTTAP

MAGI2_3, Q86UL8 = molecular target: MAGI2_3, Q86UL8
Sequence of MAGI2_3, Q86UL8 (Q86UL8 600-682): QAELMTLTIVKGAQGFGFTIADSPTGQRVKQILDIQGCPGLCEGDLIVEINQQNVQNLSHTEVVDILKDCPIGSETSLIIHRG

PARD3B_1, Q8TEW8 = molecular target: T12, PARD3B_1, Q8TEW8
T12 sequence (Q8TEW8 196-299, limits assumed, looked up): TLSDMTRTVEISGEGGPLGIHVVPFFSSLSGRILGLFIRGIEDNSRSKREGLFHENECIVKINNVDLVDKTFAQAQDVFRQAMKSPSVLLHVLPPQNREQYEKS

APBA3_1, O96018 = molecular target: T13, APBA3_1, O96018
T13 sequence (O96018 389-490, limits assumed, looked up): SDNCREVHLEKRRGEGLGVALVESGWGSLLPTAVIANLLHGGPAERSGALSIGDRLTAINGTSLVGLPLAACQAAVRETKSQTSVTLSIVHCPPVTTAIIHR

PARD3_3, Q8TEW0 = molecular target: PARD3_3, Q8TEW0
Sequence of PARD3_3, Q8TEW0 (Q8TEW0 582-685): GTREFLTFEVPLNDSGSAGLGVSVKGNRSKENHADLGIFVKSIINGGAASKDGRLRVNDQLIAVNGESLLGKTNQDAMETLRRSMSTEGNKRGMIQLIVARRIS

[1] = plain residues with an end cap or a label only (N-terminal biotin on a linker: ahx)
[2] = plain residues with an end cap or a label only (N-terminal biotin on a linker: ttds)
[3] = plain residues with an end cap or a label only (N-terminal biotin on a linker: gsgsgs; C-terminal amide)

Sequence of Inadl_3, Q8NI35 (Q8NI35 359-469): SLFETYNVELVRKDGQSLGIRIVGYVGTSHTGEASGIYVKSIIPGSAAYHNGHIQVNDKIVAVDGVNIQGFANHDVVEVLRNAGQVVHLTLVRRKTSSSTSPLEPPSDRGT

NRKREIFSNF [NHERF2, Q15599]
pKd (NHERF3_1, Q5T2W1; [1]): below the threshold | pKd (Inadl_3, Q8NI35; [1]): below the threshold | pKd (FRMPD1, Q5SYB0; [1]): below the threshold | pKd (GRIP1_5, Q9Y3R0; [1]): below the threshold | pKd (FRMPD4, Q14CM0; [1]): below the threshold | pKd (MPDZ_5, O75970; [1]): below the threshold | pKd (MAGI2_6, Q86UL8; [1]): 3.55 | pKd (IL16_4, Q14005; [1]): below the threshold | pKd (PDLIM1, O00151; [1]): below the threshold | pKd (PDZRN3_1, Q9UPQ7; [1]): below the threshold | pKd (GRID2IP_1, A4D2P6; [1]): below the threshold | pKd (MPDZ_12, O75970; [1]): below the threshold | pKd (DLG4_1, P78352; [1]): below the threshold | pKd (NOS1, P29475; [1]): below the threshold | pKd (GRIP1_7, Q9Y3R0; [1]): below the threshold | pKd (LIN7A, O14910; [1]): below the threshold | pKd (DLG3_1, Q92796; [1]): below the threshold | pKd (APBA2_1, Q99767; [1]): below the threshold | pKd (CARD11, Q9BXL7; [1]): below the threshold | pKd (LDB3, O75112; [1]): below the threshold | pKd (MAGI2_3, Q86UL8; [1]): below the threshold | pKd (PARD3B_1, Q8TEW8; [1]): below the threshold | pKd (APBA3_1, O96018; [1]): below the threshold | pKd (PARD3_3, Q8TEW0; [1]): below the threshold

RRRKRKRTYL [HPV49-L2, P36762]
pKd (NHERF3_1, Q5T2W1; [1]): 4.86 | pKd (Inadl_3, Q8NI35; [1]): 3.72 | pKd (FRMPD1, Q5SYB0; [1]): below the threshold | pKd (GRIP1_5, Q9Y3R0; [1]): below the threshold | pKd (FRMPD4, Q14CM0; [1]): 3.53 | pKd (MPDZ_5, O75970; [1]): below the threshold | pKd (MAGI2_6, Q86UL8; [1]): below the threshold | pKd (IL16_4, Q14005; [1]): below the threshold | pKd (PDLIM1, O00151; [1]): 3.52 | pKd (PDZRN3_1, Q9UPQ7; [1]): 3.51 | pKd (GRID2IP_1, A4D2P6; [1]): below the threshold | pKd (MPDZ_12, O75970; [1]): below the threshold | pKd (DLG4_1, P78352; [1]): 3.62 | pKd (NOS1, P29475; [1]): 3.71 | pKd (GRIP1_7, Q9Y3R0; [1]): 3.54 | pKd (LIN7A, O14910; [1]): below the threshold | pKd (DLG3_1, Q92796; [1]): below the threshold | pKd (APBA2_1, Q99767; [1]): below the threshold | pKd (CARD11, Q9BXL7; [1]): below the threshold | pKd (LDB3, O75112; [1]): below the threshold | pKd (MAGI2_3, Q86UL8; [1]): below the threshold | pKd (PARD3B_1, Q8TEW8; [1]): 3.72 | pKd (APBA3_1, O96018; [1]): below the threshold | pKd (PARD3_3, Q8TEW0; [1]): below the threshold

RAVEEEESRF [PSCDBP, O60759]
pKd (NHERF3_1, Q5T2W1; [1]): 4.34 | pKd (Inadl_3, Q8NI35; [1]): below the threshold | pKd (FRMPD1, Q5SYB0; [1]): below the threshold | pKd (GRIP1_5, Q9Y3R0; [1]): below the threshold | pKd (FRMPD4, Q14CM0; [1]): below the threshold | pKd (MPDZ_5, O75970; [1]): below the threshold | pKd (MAGI2_6, Q86UL8; [1]): below the threshold | pKd (IL16_4, Q14005; [1]): below the threshold | pKd (PDLIM1, O00151; [1]): below the threshold | pKd (PDZRN3_1, Q9UPQ7; [1]): below the threshold | pKd (GRID2IP_1, A4D2P6; [1]): below the threshold | pKd (MPDZ_12, O75970; [1]): below the threshold | pKd (DLG4_1, P78352; [1]): below the threshold | pKd (NOS1, P29475; [1]): 3.62 | pKd (GRIP1_7, Q9Y3R0; [1]): below the threshold | pKd (LIN7A, O14910; [1]): below the threshold | pKd (DLG3_1, Q92796; [1]): below the threshold | pKd (APBA2_1, Q99767; [1]): below the threshold | pKd (CARD11, Q9BXL7; [1]): below the threshold | pKd (LDB3, O75112; [1]): below the threshold | pKd (MAGI2_3, Q86UL8; [1]): below the threshold | pKd (PARD3B_1, Q8TEW8; [1]): 4.06 | pKd (APBA3_1, O96018; [1]): below the threshold | pKd (PARD3_3, Q8TEW0; [1]): 4.09

RPLPRKVSQL [DOCK4, Q8N1I0]
pKd (NHERF3_1, Q5T2W1; [2]): 4.21 | pKd (Inadl_3, Q8NI35; [2]): below the threshold | pKd (FRMPD1, Q5SYB0; [2]): below the threshold | pKd (GRIP1_5, Q9Y3R0; [2]): below the threshold | pKd (FRMPD4, Q14CM0; [2]): below the threshold | pKd (MPDZ_5, O75970; [2]): below the threshold | pKd (MAGI2_6, Q86UL8; [2]): below the threshold | pKd (IL16_4, Q14005; [2]): below the threshold | pKd (PDLIM1, O00151; [2]): below the threshold | pKd (PDZRN3_1, Q9UPQ7; [2]): 3.64 | pKd (GRID2IP_1, A4D2P6; [2]): below the threshold | pKd (MPDZ_12, O75970; [2]): below the threshold | pKd (DLG4_1, P78352; [2]): below the threshold | pKd (NOS1, P29475; [2]): below the threshold | pKd (GRIP1_7, Q9Y3R0; [2]): below the threshold | pKd (LIN7A, O14910; [2]): below the threshold | pKd (DLG3_1, Q92796; [2]): below the threshold | pKd (APBA2_1, Q99767; [2]): below the threshold | pKd (CARD11, Q9BXL7; [2]): below the threshold | pKd (LDB3, O75112; [2]): below the threshold | pKd (MAGI2_3, Q86UL8; [2]): below the threshold | pKd (PARD3B_1, Q8TEW8; [2]): below the threshold | pKd (APBA3_1, O96018; [2]): below the threshold | pKd (PARD3_3, Q8TEW0; [2]): below the threshold

YGIVQETTFDLGGDIH [MLLT4_int, P55196]
pKd (NHERF3_1, Q5T2W1; [3]): below the threshold | pKd (Inadl_3, Q8NI35; [3]): below the threshold | pKd (FRMPD1, Q5SYB0; [3]): below the threshold | pKd (GRIP1_5, Q9Y3R0; [3]): below the threshold | pKd (FRMPD4, Q14CM0; [3]): below the threshold | pKd (MPDZ_5, O75970; [3]): below the threshold | pKd (MAGI2_6, Q86UL8; [3]): below the threshold | pKd (IL16_4, Q14005; [3]): below the threshold | pKd (PDLIM1, O00151; [3]): below the threshold | pKd (PDZRN3_1, Q9UPQ7; [3]): below the threshold | pKd (GRID2IP_1, A4D2P6; [3]): below the threshold | pKd (MPDZ_12, O75970; [3]): below the threshold | pKd (DLG4_1, P78352; [3]): below the threshold | pKd (NOS1, P29475; [3]): below the threshold | pKd (GRIP1_7, Q9Y3R0; [3]): below the threshold | pKd (LIN7A, O14910; [3]): below the threshold | pKd (DLG3_1, Q92796; [3]): below the threshold | pKd (APBA2_1, Q99767; [3]): below the threshold | pKd (CARD11, Q9BXL7; [3]): below the threshold | pKd (LDB3, O75112; [3]): below the threshold | pKd (MAGI2_3, Q86UL8; [3]): below the threshold | pKd (PARD3B_1, Q8TEW8; [3]): below the threshold | pKd (APBA3_1, O96018; [3]): below the threshold | pKd (PARD3_3, Q8TEW0; [3]): below the threshold

— PMC9482650, “Quantitative fragmentomics allow affinity mapping of interactomes” (Nature Communications, 2022)
